{
  "source": "patent US11407811B2",
  "about": "“Fusion protein, preparation method therefor and use thereof” (JIANGSU RONGTAI BIOTECH CO., LTD., priority 2017, dated 2022)",
  "molecules": {"B1": {"name": "Protein II: IgG2-Fc linked to antiangiogenesis polypeptide EDSM-Y via a flexible linker; SEQ ID NO: 17 (protein)", "chain": "ERKCCVECPPCPAPPVAGPSVFLFPPKPKDTLMISRTPEVTCVVVDVSHEDPEVQFNWYVDGVEVHNAKTKPREEQFNSTFRVVSVLTVVHQDWLNGKEYKCKVSNKGLPAPIEKTISKTKGQPREPQVYTLPPSREEMTKNQVSLTCLVKGFYPSDISVEWESNGQPENNYKTTPPMLDSDGSFFLYSKLTVDKSRWQQGNVFSCSVMHEALHNHYTQKSLSLSPGKGGGGSGGGGSGGGGSFQPVLHLVALNSPLSGGMRGIRGADFQCFQQARAVGLAGTFRAGGGGRGD"}},
  "key": {"[1]": {"test_system": "xylene-induced ear swelling in mice", "test": "Xylene-induced ear swelling in mice", "type": "in vivo", "conditions": "for Swelling degree / PI: injection; for Swelling degree: 2 h after xylene, mice; for PI: ear swelling vs control", "protocol": "80 Kunming mice were divided into 8 groups with 10 mice for each group and numbered. A physiological saline group was used as a blank control group, an aspirin group (200 mg/kg) was used as a positive control group, and fusion protein I, protein II, protein III, protein IV and protein V at high, medium and low doses (128, 32, 8 mg/kg) were used as experimental groups. Mice were administered once by injection, while EDSM needed to be administered twice a day for 5 consecutive days. The blank control group was given an equal volume of physiological saline. After the fifth day, 0.05 mL of xylene was applied to both sides of the right ears of the mice to induce inflammation, and the left ears were not applied and were normal ears. After 2 h, the mice were sacrificed by dislocation, and the ears were cut along the auricle. Ear pieces were taken with a puncher and weighed, and the swelling degree and swelling rate were calculated. Swelling degree=right ear piece weight-left ear piece weight, swelling rate=(swelling degree/left ear piece weight)×100%."}, "[2]": {"test_system": "adjuvant arthritis in rat", "test": "Chronic inflammation of adjuvant arthritis in rat", "type": "in vivo", "parameters": "key to Clinical score Whole body: sum of hind/fore foot, ear, nose, tail scores; full score 8", "conditions": "for Clinical score Whole body: full score 8; for Foot swelling degree Left: left hind foot (primary inflammation); for Clinical score Arthritis index: maximum score 16; for Foot swelling degree Right: right foot (secondary inflammation)", "protocol": "80 SPF SD rats were randomly divided into 8 groups. Rats in each group were lightly anesthetized with ether. Then, 0.1 mL of complete Freund's adjuvant containing inactivated Mycobacterium tuberculosis was injected subcutaneously into the left hind foot of the rats. Primary arthritis occurred in the left hind foot of the rat, and at about 13 days post-modeling, secondary arthritis occurred in the right hind foot. A blank control group was injected with an equal volume of physiological saline. The drug was administered 13 days after modeling. A methotrexate group was administered by injection every 5 days for 15 days, 4 times in total; the fusion protein I, protein II, protein III, protein IV, and protein V at high, medium and low doses (128 mg/kg, 32 mg/kg, 8 mg/kg) were administered by injection every 5 days for 15 days.\nUsing a foot volume measuring method, a marker was made with a fat-soluble marker at the left and right posterior ankle joint of each rat, and the left and right hind feet of the animal were respectively immersed in the volume measuring device. The immersion depth was bounded by the marker, and the reading value at the scale pipette of the device was the initial volume of the animal's left and right hind feet.\nThe day of modeling was considered as the 0th day and recorded as d0. The volume of the left hind foot (modeling foot) was measured from the first day d1 after modeling every 2 days. When the swelling occurred (i.e., secondary arthritis occurred) at the contralateral non-inflammatory foot (right hind foot), the administration was started. The volume of the left and right hind feet was measured every 2 days, and the degree of primary and secondary toe swelling was determined, which was calculated as follows:\nPrimary toe swelling (mL)=left hind foot volume on the day of measurement-initial volume of left hind foot\nSecondary toe swelling (mL)=right hind foot volume on the day of measurement-initial volume of right hind foot 2. Clinical score\nSystemic score: the systemic score was taken every 2 days after the onset of secondary inflammation.\nHind foot: no swelling=0 score, one hind foot swelling=1 score, two hind feet swelling=2 scores;\nForefoot: no swelling=0 score, one forefoot swelling=1 score, two forefeet swelling=2 scores;\nEar: no redness and nodules=0 score, redness or nodules in one ear=1 score, redness and nodules in both ears=2 scores;\nNose: no swelling=0 score, obvious swelling=1 score;\nTail: no nodules=0 score, with nodules=1 score; full score was 8 scores.\nArthritis index score: the arthritis index score was performed every 2 days after the onset of secondary inflammation.\nThe initial body weight of each group of rats was weighed before modeling. The body weight was measured every 2 days from d1 after modeling, from which the initial body weight was subtracted to obtain the weight gain of each group of rats."}, "[3]": {"test_system": "mouse spleen lymphocytes", "test": "Proliferation of mouse spleen lymphocytes (ConA, MTT)", "type": "cell-based", "conditions": "for A570 nm/A630 nm / PI (%): with ConA 5 μg/mL", "protocol": "Tris-NH4Cl was used to break the red blood cells, which were allowed to stand in an ice water bath for 4 min and centrifuged (1000 rpm, 5 min), the supernatant was discarded, and the cells were washed twice with sterile PBS.\nThe cells were statically cultured in a cell incubator at 37° C. for 48 h. After the completion of the culture, 20 μL of MTT was added to each well, and the culture was continued for 4 h. Finally, all the solutions in each well were discarded, 100 μL of DMSO was added to each well, and the mixture was shaken and detected by a microplate reader for OD value at 570 nm. 5 parallels were preformed for per well."}, "[4]": {"test_system": "angiogenesis of chicken embryo chorioallantoic membrane", "test": "Chicken embryo chorioallantoic membrane (CAM) angiogenesis assay", "type": "in vivo", "conditions": "for Blood vessel number / PI: CAM, 72 hours", "from_the_text": "In this study, CAM assay was used to investigate the activity of fusion protein I, protein II, protein III, protein IV, and protein V to inhibit angiogenesis in vivo. The study has shown that the biosynthesis rate of collagen reached the maximum on the 8th to 11th day of chicken embryo development, which was the most vigorous stage of angiogenesis, and the body's immune system had not yet been fully established at that time, and thus the chicken embryos developed to the 8th day was selected to be administered. […] The following steps were used.\n(1) The White Leghorn chicken embryos on day 6 were cultured in a 37° C. incubator at 60%-70% humidity for two days.\n(2) A 1.0 cm×1.0 cm window was drilled above the chicken embryo air sac, and the inner membrane was torn off with forceps to expose the chorioallantoic membrane. Lens paper having a diameter of 5 mm was used as a loading carrier, and was placed on the chorioallantoic membrane of the chicken embryo air sac. Filter paper with PBS was used as a blank group, and the administration group was added with different doses of fusion protein.\n(3) The chicken embryo air sac was sealed with a sterile transparent tape, and after culturing at 37° C. for 72 hours, the chicken embryo air sac was opened, and a fixative (formaldehyde:acetone=1:1) was added for fixation for 15 minutes. The chorioallantoic membrane to which the lens paper was adhered was taken out, the distribution of the new blood vessels was observed, and the new blood vessels were counted and photographed. Five replicates were set for each dose and the results were statistically analyzed."}},
  "data": [
    {"molecule": "B1", "values": [
      {"measurement": "Swelling degree", "setting": "[1]; 8 mg/kg", "value": "6.21 ± 0.23", "unit": "mg"},
      {"measurement": "PI", "setting": "[1]; 8 mg/kg", "value": 6.62, "unit": "%"},
      {"measurement": "Swelling degree", "setting": "[1]; 32 mg/kg", "value": "5.18 ± 0.89", "unit": "mg"},
      {"measurement": "PI", "setting": "[1]; 32 mg/kg", "value": 22.11, "unit": "%"},
      {"measurement": "Swelling degree", "setting": "[1]; 128 mg/kg", "value": "3.87 ± 0.45", "unit": "mg"},
      {"measurement": "PI", "setting": "[1]; 128 mg/kg", "value": 41.80, "unit": "%"},
      {"measurement": "inhibition of xylene-induced ear swelling", "setting": "[1]; high doses", "value": "could significantly inhibit xylene-induced ear swelling"},
      {"measurement": "Weight gain", "setting": "[2]; 8 mg/kg", "value": "44.96 ± 12.11", "unit": "g"},
      {"measurement": "Clinical score Whole body", "setting": "[2]; 8 mg/kg", "value": "2.23 ± 0.26"},
      {"measurement": "Foot swelling degree Left", "setting": "[2]; 8 mg/kg", "value": "1.95 ± 0.12", "unit": "mL"},
      {"measurement": "Clinical score Arthritis index", "setting": "[2]; 8 mg/kg", "value": "6.92 ± 0.55"},
      {"measurement": "Foot swelling degree Right", "setting": "[2]; 8 mg/kg", "value": "1.77 ± 0.54", "unit": "mL"},
      {"measurement": "Weight gain", "setting": "[2]; 32 mg/kg", "value": "48.10 ± 9.19", "unit": "g"},
      {"measurement": "Clinical score Whole body", "setting": "[2]; 32 mg/kg", "value": "1.81 ± 0.32"},
      {"measurement": "Foot swelling degree Left", "setting": "[2]; 32 mg/kg", "value": "1.60 ± 0.19", "unit": "mL"},
      {"measurement": "Clinical score Arthritis index", "setting": "[2]; 32 mg/kg", "value": "5.69 ± 0.37"},
      {"measurement": "Foot swelling degree Right", "setting": "[2]; 32 mg/kg", "value": "1.54 ± 0.33", "unit": "mL"},
      {"measurement": "Weight gain", "setting": "[2]; 128 mg/kg", "value": "50.83 ± 15.19", "unit": "g"},
      {"measurement": "Clinical score Whole body", "setting": "[2]; 128 mg/kg", "value": "1.54 ± 0.19"},
      {"measurement": "Foot swelling degree Left", "setting": "[2]; 128 mg/kg", "value": "1.35 ± 0.14", "unit": "mL"},
      {"measurement": "Clinical score Arthritis index", "setting": "[2]; 128 mg/kg", "value": "4.17 ± 0.64"},
      {"measurement": "Foot swelling degree Right", "setting": "[2]; 128 mg/kg", "value": "1.35 ± 0.73", "unit": "mL"},
      {"measurement": "therapeutic effect on primary arthritis (primary toe swelling degree)", "setting": "[2]; high dose groups, compared with the model group", "value": "effective"},
      {"measurement": "inhibition of mouse spleen lymphocytes", "setting": "[3]; compared with the ConA group", "value": "could inhibit mouse spleen lymphocytes to some extent"},
      {"measurement": "A570 nm/A630 nm", "setting": "[3]; dose 8 μg/mL", "value": "0.5514 ± 0.0187"},
      {"measurement": "PI (%)", "setting": "[3]; dose 8 μg/mL", "value": 6.84, "unit": "%"},
      {"measurement": "A570 nm/A630 nm", "setting": "[3]; dose 32 μg/mL", "value": "0.4637 ± 0.0155"},
      {"measurement": "PI (%)", "setting": "[3]; dose 32 μg/mL", "value": 21.66, "unit": "%"},
      {"measurement": "A570 nm/A630 nm", "setting": "[3]; dose 128 μg/mL", "value": "0.3825 ± 0.0103"},
      {"measurement": "PI (%)", "setting": "[3]; dose 128 μg/mL", "value": 35.38, "unit": "%"},
      {"measurement": "Blood vessel number", "setting": "[4]; 8 μg", "value": "102 ± 10"},
      {"measurement": "PI", "setting": "[4]; 8 μg", "value": 17.07, "unit": "%"},
      {"measurement": "Blood vessel number", "setting": "[4]; 32 μg", "value": "83 ± 11"},
      {"measurement": "PI", "setting": "[4]; 32 μg", "value": 32.52, "unit": "%"},
      {"measurement": "Blood vessel number", "setting": "[4]; 128 μg", "value": "66 ± 7"},
      {"measurement": "PI", "setting": "[4]; 128 μg", "value": 46.34, "unit": "%"},
      {"measurement": "inhibitory effect on angiogenesis of CAM", "setting": "[4]; high dose", "value": "~50", "unit": "%"}
    ]}
  ]
}
